Where two headings read alike, the source gives them in different places.
Columns and labels:
human Sirpα-V1-hFc [1] = target: T1, human Sirpα-V1-hFc (human, UniProt P78324 31-373); experiment: blocking ELISA, competitor CD47-his
T1 construct: range 31-373; also called hSirpα (dimer); hSirpα-V1-hFc (dimer); not shown: human IgG1 Fc region at the C-terminus
Description: (§1) The recombinant proteins such as human Sirpα-V1-hFc/Sirpα-V1-his were diluted to concentrations of 5 μg/mL or 2 μg/mL respectively with a PBS buffer at pH 7.4, and then added into a 96-well ELISA plate (Corning, CLS3590-100EA) at a volume of 50 μL/well, and placed in an incubator at 37° C. for 2 hours. After the liquid was discarded, the wells were added with a blocking solution of 5% skimmed milk (skimmed milk powder available from Bright Dairy) diluted with PBS at 230 μL/well, and incubated in an incubator at 37° C. for 3 hours, or placed overnight at 4° C. (for 16-18 hours) for blocking. […] The plate was washed for 5 times, added with 50 μL/well of streptavidin-HRP (GenScript, M00091) or anti-his-HRP secondary antibody (GenScript, A00612) diluted at 1:1000, incubated at 37° C. for 1 hour, and then washed with PBST for 5 times. Each well was added with 50 μL of TMB (Surmodic, Cat #: TTMB-1000-01) for color development, and added with 50 μL/well of 1 M H₂SO₄ to stop the reaction. The readings on a microplate reader (MultiskanGO Thermo, Model 51119200) were subjected to data analysis by GraphPad prism 5.

Cyno Sirpα L933 = target: T2, Cyno Sirpα L933 (cynomolgus); experiment: ELISA
T2 construct: extracellular domain; also called Cyno Sirpα polymorphism 2 (L933)

Cyno Sirpα L937 = target: T3, Cyno Sirpα L937 (cynomolgus); experiment: ELISA
T3 construct: also called RB3-5; Cyno Sirpα polymorphism 4 (L937)
T3 chain: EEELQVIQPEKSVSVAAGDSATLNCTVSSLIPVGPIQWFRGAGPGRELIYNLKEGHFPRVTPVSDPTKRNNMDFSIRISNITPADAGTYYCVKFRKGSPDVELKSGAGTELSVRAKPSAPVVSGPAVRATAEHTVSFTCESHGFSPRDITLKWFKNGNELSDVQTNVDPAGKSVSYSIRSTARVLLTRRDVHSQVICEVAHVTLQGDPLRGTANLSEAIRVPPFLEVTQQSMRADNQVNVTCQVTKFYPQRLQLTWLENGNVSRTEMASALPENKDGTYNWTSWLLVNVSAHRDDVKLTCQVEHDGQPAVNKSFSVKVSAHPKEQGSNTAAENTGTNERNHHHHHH

Cyno Sirpα L932 = target: T4, Cyno Sirpα L932 (cynomolgus); experiment: ELISA
T4 chain: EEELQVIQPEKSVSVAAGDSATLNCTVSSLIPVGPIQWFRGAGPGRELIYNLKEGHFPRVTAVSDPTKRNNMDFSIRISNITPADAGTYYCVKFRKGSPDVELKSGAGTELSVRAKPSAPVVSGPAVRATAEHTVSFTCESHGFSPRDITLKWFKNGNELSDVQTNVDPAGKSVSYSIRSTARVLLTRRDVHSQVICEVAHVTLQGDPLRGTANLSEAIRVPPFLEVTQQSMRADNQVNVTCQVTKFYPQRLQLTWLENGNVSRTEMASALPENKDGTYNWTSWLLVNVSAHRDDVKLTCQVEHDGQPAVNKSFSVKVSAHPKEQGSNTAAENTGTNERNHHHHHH

Cyno Sirpα L936 = target: T5, Cyno Sirpα L936 (cynomolgus); experiment: ELISA
T5 construct: also called RB3-3; Cyno Sirpα polymorphism 3 (L936)
T5 chain: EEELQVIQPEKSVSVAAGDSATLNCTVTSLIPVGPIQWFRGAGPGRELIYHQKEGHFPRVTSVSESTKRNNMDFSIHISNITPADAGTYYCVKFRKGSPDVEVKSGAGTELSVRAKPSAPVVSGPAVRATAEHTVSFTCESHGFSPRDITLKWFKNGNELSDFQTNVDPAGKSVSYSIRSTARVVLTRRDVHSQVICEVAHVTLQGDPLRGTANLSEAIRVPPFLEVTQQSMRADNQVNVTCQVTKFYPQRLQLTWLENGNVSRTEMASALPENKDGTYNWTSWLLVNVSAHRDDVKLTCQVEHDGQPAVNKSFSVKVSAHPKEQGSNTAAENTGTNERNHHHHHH

human Sirpα-V1-his [2] = target: T6, human Sirpα-V1-his (human, UniProt P78324 31-373); experiment: ELISA
T6 construct: range 31-373; Bought (Sino Biological 11612-H08H) or expressed in-house; also called hSirpα-V1; hSirpα-V1-his
Description: (§2) Different antigens (recombinant proteins) such as the human Sirpα-V1-hFc, Sirpα-V1-his, Sirpα-V2-his, Sirpβ-his, Sirpγ-his, monkey Sirpα-his (cynoSirpα-his) or NOD-mSirpα-his described in Example 1 were diluted with a PBS buffer at pH7.4 to concentrations of 1 μg/mL, 2 μg/mL or 5 μg/mL, added into a 96-well ELISA plate (Corning, CLS3590-100EA) at a volume of 50 μL/well, and placed in an incubator at 37° C. for 2 hours. After the liquid was discarded, the wells were added with a blocking solution of 5% skimmed milk (skimmed milk powder available from Bright Dairy) diluted with PBS at 230 μL/well, and incubated in an incubator at 37° C. for 3 hours, or placed overnight at 4° C. (for 16-18 hours) for blocking. […] The plated was washed with PBST for 5 times, then added with 50 μL/well of TMB chromogenic substrate (KPL, Cat #: 52-00-03), incubated at room temperature for 10-15 min, added with 50 μL/well of 1 M H₂SO₄ to stop the reaction, and read by a […] Go microplate reader (ThermoFisher, Cat #: 51119200) for the absorbance value at 450 nm, and then a clone with high binding activity was selected or a EC₅₀ value was calculated according to the OD value. […]

human Sirpα-V2-his = human Sirpα-V2-his (human); experiment: ELISA
Description: as §2

human Sirpα-V1-his [3] = target: T6, human Sirpα-V1-his; experiment: blocking ELISA, competitor CD47-hFc
Description: as §1, with “5. […]” for “5.”

[4] = target: T7, human T cells (expressing Sirpγ) (human, UniProt Q9P1W8 29-387); experiment: flow cytometry on PBMC
T7 construct: whole, on cells; The target as printed is the cell; also called human PBMCs (T cells)

[5] = target: T8, human Sirpα-V1 on CHO-K1 cells (CHO-K1 hSirpα+ cell line) (human, UniProt P78324 31-504); experiment: cell ELISA on CHO-K1 hSirpα+ cells
T8 construct: whole, on cells; also called hSirpα-v1+ cell strain
Source text: The readings on a microplate reader (MultiskanGO Thermo, Model 51119200) were subjected to data analysis by GraphPad prism 5.
The light and heavy chain variable region sequences of the aforementioned antibody of the present disclosure and the constant regions of different IgG types, for example human IgG1 (hIgG1), human IgG2 (hIgG2), human IgG3 (hIgG3) or human IgG4 (hIgG4), human light chain κ and λ types; murine mIgG1, mIgG2 or mIgG3, murine light chain κ and λ types, etc. were recombined, expressed and purified to obtain an entire human-murine chimeric antibody and a murine antibody.

human Sirpα-V1-hFc [6] = target: T1, human Sirpα-V1-hFc; experiment: blocking ELISA, competitor CD47-his; remark: listed apart in the source
Description: as §1, with “5. […]” for “5.”

human Sirpα-V1-his [7] = target: T6, human Sirpα-V1-his; experiment: blocking ELISA, competitor CD47-hFc; remark: listed apart in the source
Description: as §1

human Sirpα-V1-his [8] = target: T6, human Sirpα-V1-his; experiment: ELISA; remark: listed apart in the source

human Sirpα-V2-his (human), sequence (chain, as listed by the source): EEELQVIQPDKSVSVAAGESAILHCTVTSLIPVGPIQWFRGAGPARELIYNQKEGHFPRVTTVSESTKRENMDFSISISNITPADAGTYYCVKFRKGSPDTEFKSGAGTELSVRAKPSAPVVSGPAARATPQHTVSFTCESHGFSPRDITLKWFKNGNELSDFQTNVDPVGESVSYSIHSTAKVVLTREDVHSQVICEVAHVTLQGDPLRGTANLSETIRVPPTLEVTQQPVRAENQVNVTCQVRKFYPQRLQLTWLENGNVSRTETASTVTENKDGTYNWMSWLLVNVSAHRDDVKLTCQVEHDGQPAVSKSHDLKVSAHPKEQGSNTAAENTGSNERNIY
T7 sequence (Q9P1W8 29-387): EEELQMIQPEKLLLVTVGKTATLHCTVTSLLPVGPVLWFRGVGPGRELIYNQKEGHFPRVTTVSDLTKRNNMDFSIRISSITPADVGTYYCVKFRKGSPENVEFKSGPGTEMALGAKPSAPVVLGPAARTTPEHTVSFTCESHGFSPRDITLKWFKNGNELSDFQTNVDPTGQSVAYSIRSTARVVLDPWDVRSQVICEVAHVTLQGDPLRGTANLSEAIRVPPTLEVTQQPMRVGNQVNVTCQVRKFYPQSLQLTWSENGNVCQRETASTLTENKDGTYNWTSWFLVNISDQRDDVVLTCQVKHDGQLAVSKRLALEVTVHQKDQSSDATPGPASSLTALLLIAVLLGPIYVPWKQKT

IC50 (human Sirpα-V1-hFc [1]): 5.48 nM
EC50 (Cyno Sirpα L933): 0.14 nM
EC50 (Cyno Sirpα L937): 0.099 nM
EC50 (Cyno Sirpα L932): 0.1 nM
EC50 (Cyno Sirpα L936): 0.099 nM
EC50 (human Sirpα-V1-his [2]): 0.16 nM
EC50 (human Sirpα-V2-his): 0.14 nM
IC50 (human Sirpα-V1-his [3]): 5.54 nM
binding result [4]: no binding (tested: 10 µg/mL)
EC50 [5]: 0.29 nM
IC50 (human Sirpα-V1-hFc [6]): 5.7 nM
IC50 (human Sirpα-V1-his [7]): 9.98 nM
EC50 (human Sirpα-V1-his [8]): 0.093 nM
B1: human-murine chimeric antibody mab14c (antibody, human IgG4 S228P, kappa, V domains shown)
VH: QVHLQQPGAELVKPGASVKLSCKASGYNFNIYWINWVKQRPGQGLEWIGNIYPSSISTNYNEKFKTKATLTVDKSSNTVYMQFSSLTSEDSAVYYCARSEGTYYGGRYEGDWFGYWGQGTLVTVSA
VL: DIQMTQTTSSLSASLGDRVTISCRASQDIRNYLNWYQQKPDGTVKLLIYFTSTLHSGVPSRFSGSGSGTDYSLTISNLEQEDIATYFCQQGNTLPWTFGGGTKLEIKR
notes: hIgG4, κ

Source: patent US20230106247A1 (L AND L BIO CO LTD NINGBO CHINA, published 2023)
